Measurements: patent US20130189787A1 (OPX BIOTECHNOLOGIES ,INC., priority 2008, published 2013)

Columns and labels:
E. coli = conditions: known to be toxic; cited from earlier work
[1] = system: gram negative and gram positive bacteria; conditions: wide range of gram negative and gram positive bacteria; concentrations as low as; cited from earlier work
E. coli strain BW25113 = conditions: 20 g/L 3-HP, putrescine 0.1 g/L
Protocol: The control E. coli strain BW25113 and 22 of its derivatives, each derivative having a deletion of a respective one of 22 aldehyde dehydrogenases or related genes (predicted aldehyde dehydrogenases via homology, www.ecocyc.org) were cultured as described in methods in the Common Methods Section. […] These strains each contain a kanamycin marker in place of the deleted gene.
In addition, an Eppendorf external column heater is used and the data are collected using an SRI (Torrance, Calif.) analog-to-digital converter linked to a standard desk top computer. Data are analyzed using the SRI Peak Simple software. A Coregel 64H ion exclusion column (Transgenomic, Inc., San Jose, Calif.) is employed. The column resin is a sulfonated polystyrene divinyl benzene with a particle size of 10 μm and column dimensions are 300×7.8 mm The mobile phase consisted of sulfuric acid (Fisher Scientific, Pittsburgh, Pa. USA) diluted with deionized (18 MΩcm) water to a concentration of 0.02 N and vacuum filtered through a 0.2 μm nylon filter. The flow rate of the mobile phase is 0.6 mL/min. The UV detector is operated at a wavelength of 210 nm and the column is heated to 60° C.
The next day, 250 uL of the overnight cultures were inoculated into 25 mL of M9+kanamycin. […] All the intracellular and extracellular metabolites were analyzed by HPLC as described in the Common Methods Section, Subsection III.

[2] = Enzyme activity assays for dehydrogenase enzymes with 3-HP as a substrate (340 nm spectrophotometric); format: biochemical, E. coli; conditions: 1 mM 3-HP, 1 mM cofactor, 1 hour at room temperature, change in absorption at 340 nm; clarified lysates or purified enzymes
Protocol: Samples of these enzymes were isolated either as clarified lysates or as purified enzymes as described in the method reported above. As these dehydrogenases use NAD+, NADH, NADP+, NADPH or all of these molecules as cofactors for their reactions depending on reaction direction, all enzymes where tested with their known cofactors. For enzymes where the specific cofactors have not been determined or maybe unclear, all possible cofactors were evaluated.
(§1) A spectrophotometric assay was used to evaluate enzyme activity. […] Replicates of reactions were carried out to compare reactions in the presence or absence or 3-HP, and with and without enzyme. Enzymatic activities were confirmed by comparing the change in the 340 nm absorption values after 1 hour incubations to reactions performed in buffer containing 1 mM cofactor as a baseline. […] Furthermore, activity of the purified aldB enzyme was confirmed with its natural substrate (1 mM […]) as in FIG. 9B.
(§2) Reactions were carried out using one of two reaction buffers. AldA, AldB, LacZ, and Usg reactions were performed in a buffer consisting of 100 mM potassium phosphate buffer pH 7.4 with 50 mM sodium chloride. Likewise, puuC reactions were performed in a buffer consisting of 200 mM sodium bicarbonate pH 9.2 with 10 mM dithiothreitol and 30 micromolar ferrous sulphate. Where stated, all cofactors were used at 1 mM in the final reaction buffer. […] After one hour incubations at room temperature, the samples were diluted 1 to 20 in water and measured with a Beckmann DU530 spectrometer set at 340 nm.

[3] = Enzyme activity assay of purified aldB with its natural substrate; format: biochemical, E. coli; conditions: 1 mM acetate, FIG. 9B
Protocol: as §1, §2

For `O=CCCO` [3-HPA, 3-hydroxypropionaldehyde], the “toxicity to E. coli” value (E. coli) is listed as “toxic” and the “concentration toxic to bacteria” value [1] is listed as no less than 15 mM.

For `NCCCCN` [putrescine], the “level of aldehyde in response to 3-HP” value (E. coli strain BW25113; 20 hours, FIG. 7) was “greater level” and the “level of aldehyde in response to 3-HP in a strain lacking the puuC gene” value (E. coli strain BW25113; puuC deletion strain, FIG. 8) was “elevated levels”.

B1: aldA: E. coli aldehyde dehydrogenase A, his-tagged, over-expressed (SEQ ID NO 023) (protein, listed as Escherichia coli)
chain: MSVPVQHPMYIDGQFVTWRGDAWIDVVNPATEAVISRIPDGQAEDARKAIDAAERAQPEWEALPAIERASWLRKISAGIRERASEISALIVEEGGKIQQLAEVEVAFTADYIDYMAEWARRYEGEIIQSDRPGENILLFKRALGVTTGILPWNFPFFLIARKMAPALLTGNTIVIKPSEFTPNNAIAFAKIVDEIGLPRGVFNLVLGRGETVGQELAGNPKVAMVSMTGSVSAGEKIMATAAKNITKVCLELGGKAPAIVMDDADLELAVKAIVDSRVINSGQVCNCAERVYVQKGIYDQFVNRLGEAMQAVQFGNPAERNDIAMGPLINAAALERVEQKVARAVEEGARVAFGGKAVEGKGYYYPPTLLLDVRQEMSIMHEETFGPVLPVVAFDTLEDAISMANDSDYGLTSSIYTQNLNVAMKAIKGLKFGETYINRENFEAMQGFHAGWRKSGIGGADGKHGLHEYLQTQVVYLQS
modifications: His tag
With B1 the “enzymatic activity using 3-HP as a substrate” value (“enzymatic activity using 3-HP” below) [2] was “showed activity”.

B2: aldB: E. coli acetaldehyde dehydrogenase, his-tagged, over-expressed (SEQ ID NO 024) (protein, listed as Escherichia coli)
chain: MTNNPPSAQIKPGEYGFPLKLKARYDNFIGGEWVAPADGEYYQNLTPVTGQLLCEVASSGKRDIDLALDAAHKVKDKWAHTSVQDRAAILFKIADRMEQNLELLATAETWDNGKPIRETSAADVPLAIDHFRYFASCIRAQEGGISEVDSETVAYHFHEPLGVVGQIIPWNFPLLMASWKMAPALAAGNCVVLKPARLTPLSVLLLMEIVGDLLPPGVVNVVNGAGGVIGEYLATSKRIAKVAFTGSTEVGQQIMQYATQNIIPVTLELGGKSPNIFFADVMDEEDAFFDKALEGFALFAFNQGEVCTCPSRALVQESIYERFMERAIRRVESIRSGNPLDSVTQMGAQVSHGQLETILNYIDIGKKEGADVLTGGRRKLLEGELKDGYYLEPTILFGQNNMRVFQEEIFGPVLAVTTFKTMEEALELANDTQYGLGAGVWSRNGNLAYKMGRGIQAGRVWTNCYHAYPAHAAFGGYKQSGIGRETHKMMLEHYQQTKCLLVSYSDKPLGLF
modifications: His tag
For B2, the “enzymatic activity with natural substrate” value [3] was “confirmed” and the “enzymatic activity using 3-HP” value [2] was “showed activity”.

B3: puuC: E. coli γ-glutamyl-γ-aminobutyraldehyde dehydrogenase, over-expressed (SEQ ID NO 038) (protein, listed as Escherichia coli)
chain: MNFHHLAYWQDKALSLAIENRLFINGEYTAAAENETFETVDPVTQAPLAKIARGKSVDIDRAMSAARGVFERGDWSLSSPAKRKAVLNKLADLMEAHAEELALLETLDTGKPIRHSLRDDIPGAARAIRWYAEAIDKVYGEVATTSSHELAMIVREPVGVIAAIVPWNFPLLLTCWKLGPALAAGNSVILKPSEKSPLSAIRLAGLAKEAGLPDGVLNVVTGFGHEAGQALSRHNDIDAIAFTGSTRTGKQLLKDAGDSNMKRVWLEAGGKSANIVFADCPDLQQAASATAAGIFYNQGQVCIAGTRLLLEESIADEFLALLKQQAQNWQPGHPLDPATTMGTLIDCAHADSVHSFIREGESKGQLLLDGRNAGLAAAIGPTIFVDVDPNASLSREEIFGPVLVVTRFTSEEQALQLANDSQYGLGAAVWTRDLSRAHRMSRRLKAGSVFVNNYNDGDMTVPFGGYKQSGNGRDKSLHALEKFTELKTIWISLEA
In the case of B3, the “enzymatic activity using 3-HP” value [2] is reported as “showed activity”.

B4: usg: E. coli aldehyde dehydrogenase not listed in Table 1 (SEQ ID NO: 121) (protein, listed as Escherichia coli)
chain: MSEGWNIAVLGATGAVGEALLETLAERQFPVGEIYALARNESAGEQLRFGGKTITVQDAAEFDWTQAQLAFFVAGKEATAAWVEEATNSGCLVIDSSGLFALEPDVPLVVPEVNPFVLTDYRNRNVIAVPDSLTSQLLAALKPLIDQGGLSRISVTSLISASAQGKKAVDALAGQSAKLLNGIPIDEEDFFGRQLAFNMLPLLPDSEGSVREERRIVDEVRKILQDEGLMISASVVQAPVFYGHAQMVNFEALRPLAAEEARDAFVQGEDIVLSEENEFPTQVGDASGTPHLSVGCVRNDYGMPEQVQFWSVADNVRFGGALMAVKIAEKLVQEYLY
For B4, the “enzymatic activity using 3-HP” value [2] was “showed activity”.
